Test results reported in patent US20200405852A1 (BIOVERATIV USA, published 2020).

Legend:
[1] = biological target: T1, activated human complement C1s (human, UniProt P09871 16-688); assay: competition binding to active C1s; competitor 50 pM biotinylated TNT005 (Biot-005)
T1 construct: also called aC1s; active C1s
T1 sequence: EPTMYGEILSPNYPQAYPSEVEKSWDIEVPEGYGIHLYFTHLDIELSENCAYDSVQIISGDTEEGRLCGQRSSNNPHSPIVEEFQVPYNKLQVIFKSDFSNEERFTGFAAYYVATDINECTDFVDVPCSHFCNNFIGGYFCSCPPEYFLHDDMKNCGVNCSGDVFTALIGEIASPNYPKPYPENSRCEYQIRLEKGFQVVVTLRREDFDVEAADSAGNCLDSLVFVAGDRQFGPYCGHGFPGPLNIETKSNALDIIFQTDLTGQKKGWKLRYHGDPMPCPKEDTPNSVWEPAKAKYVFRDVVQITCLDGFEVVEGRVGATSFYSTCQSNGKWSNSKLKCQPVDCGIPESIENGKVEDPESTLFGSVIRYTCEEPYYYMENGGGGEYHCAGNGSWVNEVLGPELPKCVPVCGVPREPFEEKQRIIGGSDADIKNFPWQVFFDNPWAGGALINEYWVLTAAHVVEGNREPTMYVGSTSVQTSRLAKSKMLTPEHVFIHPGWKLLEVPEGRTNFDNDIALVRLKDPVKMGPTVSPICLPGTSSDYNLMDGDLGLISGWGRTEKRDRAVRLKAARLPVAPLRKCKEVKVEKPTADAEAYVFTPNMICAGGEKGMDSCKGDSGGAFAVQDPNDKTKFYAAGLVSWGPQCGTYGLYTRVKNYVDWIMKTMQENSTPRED
Description: All 15 combinations (VH variant 1+Vk variant 1; VH variant 1+Vk variant 2; VH variant 1+Vk variant 5; VH variant 2+Vk variant 1; VH variant 2+Vk variant 2; VH variant 2+Vk variant 5; VH variant 3+Vk variant 1; VH variant 3+Vk variant 2; VH variant 3+Vk variant 5; VH variant 4+Vk variant 1; VH variant 4+Vk variant 2; VH variant 4+Vk variant 5; VH variant 5+Vk variant 1; VH variant 5+Vk variant 2; VH variant 5+Vk variant 5) were produced. Each humanized variant was tested for the ability to compete with biotinylated TNT005 for binding to active C1s.

[2] = biological target: T1, activated human complement C1s; assay: cell-based or functional assay
[3] = biological target: T1, activated human complement C1s; assay: direct binding of antibody to activated C1s (aC1s); assay format not stated
[4] = biological target: T1, activated human complement C1s; assay: kinetic characterization of binding to active human C1s; instrument not stated
[5] = biological target: T1, activated human complement C1s; assay: kinetic characterization of binding to active human C1s; instrument not stated; column head kdis

B1: humanized TNT005 variant VH variant 2+Vk variant 2 (antibody, V domains shown)
VH: EVQLVQSGAEVKKPGASVKLSCTASGFNIKDDYIHWVKQAPGQGLEWIGRIDPADGHTKYAPKFQVKATITADTSTNTAYLELSSLRSEDTAVYYCARYGYGREVFDYWGQGTTVTVSS
VL: DIVLTQSPDSLAVSLGERATISCKASQSVDYDGDSYMNWYQQKPGQPPKILIYDASNLESGIPARFSGSGSGTDFTLTISSLEPEDFAIYYCQQSNEDPWTFGGGTKVEIK
notes: also called VH variant 2 + VL variant 2
**Q.** With B1 as the binder, how does the IC50 [1] read?
**A.** 0.158 nM

**Q.** What about the “IC50 of classical complement pathway inhibition (commercial CP activation assay)” value [2] of the same binder?
**A.** 1.26 nM

**Q.** What about the EC50 [3] of the same binder?
**A.** 0.134 nM

**Q.** What about the Kd [4] of the same binder?
**A.** 0.206 nM

**Q.** What about the kon [4] of the same binder?
**A.** 835000 M⁻¹ s⁻¹

**Q.** And the koff [5]?
**A.** 0.000172 s⁻¹

B2: humanized TNT005 variant VH variant 5+Vk variant 1 (antibody, V domains shown)
VH: QVQLVQSGAEVKKPGASVKVSCAASGFNIKDDYIHWVRQAPGQGLEWIGRIDPADGHTKYAPKFQVKVTITADTSTSTAYMELSSLRSEDTAVYYCARYGYGREVFDYWGQGTTVTVSS
VL: DIVLTQSPDSLAVSLGERATISCKASQSVDYDGDSYMNWYQQKTGQPPKILIYDASNLESGIPARFSGSGSGTDFTLTISSLEEEDFAIYYCQQSNEDPWTFGGGTKVEIK
notes: also called VH variant 5 + VL variant 1
**Q.** For B2, which IC50 [1] is on record?
**A.** 0.0449 nM

**Q.** What about the “IC50 of classical complement pathway inhibition (commercial CP activation assay)” value [2] of the same binder?
**A.** 1.06 nM

**Q.** And the EC50 [3]?
**A.** 0.113 nM

**Q.** And the Kd [4]?
**A.** 0.457 nM

**Q.** And the kon [4]?
**A.** 1.03e+06 M⁻¹ s⁻¹

**Q.** And the koff [5]?
**A.** 0.000471 s⁻¹

B3: humanized TNT005 variant VH variant 2+Vk variant 5 (antibody, V domains shown)
VH: EVQLVQSGAEVKKPGASVKLSCTASGFNIKDDYIHWVKQAPGQGLEWIGRIDPADGHTKYAPKFQVKATITADTSTNTAYLELSSLRSEDTAVYYCARYGYGREVFDYWGQGTTVTVSS
VL: DIVLTQSPDSLAVSLGERATISCKASQSVDYDGDSYMNWYQQKPGQPPKLLIYDASNLESGIPARFSGSGSGTDFTLTISSLEPEDFAVYYCQQSNEDPWTFGGGTKVEIK
notes: also called VH variant 2 + VL variant 5
**Q.** What does the source list for B3?
**A.** IC50 [1]: 0.168 nM; IC50 of classical complement pathway inhibition (commercial CP activation assay) [2]: 1.27 nM; EC50 [3]: 0.124 nM; Kd [4]: 0.208 nM; kon [4]: 798000 M⁻¹ s⁻¹; koff [5]: 0.000166 s⁻¹
